Experimental data taken from paper PMC8880771, “Therapeutic antibody activation of the glucocorticoid-induced TNF receptor by a clustering mechanism” (Science Advances, 2022).

B1: full-length mouse GITR fused to EGFP at its C terminus (mGITR_(egfp)), purified (receptor, UniProt O35714 20-228, looked up)
chain: QPSVVEEPGCGPGKVQNGSGNNTRCCSLYAPGKEDCPKERCICVTPEYHCGDPQCKICKHYPCQPGQRVESQGDIVFGFRCVACAMGTFSAGRDGHCRLWTNCSQFGFLTMFPGNKTHNAVCIPEPLPTEQYGHLTVIFLVMAACIFFLTTVQLGLHIWQLRRQHMCPRETQPFAEVQLSAEDACSFQFPEEERGEQTEEKCHLGGRWP
modifications: intersubunit disulfide bond at Cys55
notes: signal peptide in the construct; mouse GITR, full-length gene in pEZT-BM, followed by a thrombin cleavage site, EGFP and 8x His; Cys14 lies in the predicted signal peptide and is not in the mature protein; last residue P228; Disulfide-linked dimer by cryo-EM; EGFP fluorescence was monitored in FSEC; also called glucocorticoid-induced TNF receptor; source: HEK293S GnTI- suspension cells (BacMam), …

Legend:
[1] = biological target: the molecule itself; experiment: cryo-EM structure; mGITR_(egfp)/DTA-1 Fab complex in DDM, single-particle cryo-EM, global resolution 4.4 Å
[2] = biological target: the molecule itself; experiment: non-reducing SDS-PAGE with anti-1D4 Western blot; lysate, nonreduced (-DTT); denaturing SDS-PAGE, shows only covalent dimers
[3] = biological target: B1; experiment: SEC; FSEC of purified proteins mixed with mGITR_(egfp), EGFP fluorescence (tryptophan fluorescence as control), Superose 6 Increase 10/300 GL, 20 mM tris pH 8.0, 300 mM NaCl, 0.5 mM DDM; molar ratio 1:15:4:2 for mGITR_(egfp):mGITRL:Fab:IgG; conditions: both partners purified

| Binder | stoichiometry N [2] | other results |
| --- | --- | --- |
| B1 | – | stoichiometry N [1]: 2 |
| full-length mGITR_(egfp) with C-terminal 1D4 tag, in HEK293 lysate (receptor, mouse, UniProt O35714 20-228, looked up, intersubunit disulfide bond at Cys55, signal peptide in the construct; mouse GITR, full length (to P228), followed by EGFP and a 1D4 tag; May be the same construct as m1; the methods name an 8x His tag for the purified protein, the results a 1D4 tag for all constructs analysed in lysate; source: HEK293 cells, solubilized with DDM, in lysate; not shown: EGFP, C-terminal, kept; 1D4, C-terminal, kept) QPSVVEEPGCGPGKVQNGSGNNTRCCSLYAPGKEDCPKERCICVTPEYHCGDPQCKICKHYPCQPGQRVESQGDIVFGFRCVACAMGTFSAGRDGHCRLWTNCSQFGFLTMFPGNKTHNAVCIPEPLPTEQYGHLTVIFLVMAACIFFLTTVQLGLHIWQLRRQHMCPRETQPFAEVQLSAEDACSFQFPEEERGEQTEEKCHLGGRWP | 2 | – |
| mGITR_(ΔCTD-egfp) (domain or fragment, mouse, UniProt O35714 20-185, looked up, signal peptide in the construct; mouse GITR without the unstructured C-terminal residues C186-P228; also called CTD deletion construct; source: HEK293 cells, solubilized with DDM, in lysate; not shown: EGFP, C-terminal, kept; 1D4, C-terminal, kept) QPSVVEEPGCGPGKVQNGSGNNTRCCSLYAPGKEDCPKERCICVTPEYHCGDPQCKICKHYPCQPGQRVESQGDIVFGFRCVACAMGTFSAGRDGHCRLWTNCSQFGFLTMFPGNKTHNAVCIPEPLPTEQYGHLTVIFLVMAACIFFLTTVQLGLHIWQLRRQHM | 2 | – |
| mGITR_(ΔCTD-egfp)-C164A (domain or fragment, mouse, UniProt O35714 20-185, looked up, signal peptide in the construct; mouse GITR without the C-terminal residues C186-P228, with C164A; also called C164A mutant; source: HEK293 cells, solubilized with DDM, in lysate; not shown: EGFP, C-terminal, kept; 1D4, C-terminal, kept) QPSVVEEPGCGPGKVQNGSGNNTRCCSLYAPGKEDCPKERCICVTPEYHCGDPQCKICKHYPCQPGQRVESQGDIVFGFRCVACAMGTFSAGRDGHCRLWTNCSQFGFLTMFPGNKTHNAVCIPEPLPTEQYGHLTVIFLVMAAAIFFLTTVQLGLHIWQLRRQHM | 2 | – |
| full-length mouse GITR ligand (mGITRL) (ligand, UniProt Q7TS55 1-173, looked up, mouse GITRL, full-length gene with transmembrane region, in pEZT-BM; the oligomeric state of the full-length protein was not measured here; source: HEK293S GnTI- suspension cells (BacMam), solubilized in DDM, purified (StrepTrap HP, Superose 6)) MEEMPLRESSPQRAERCKKSWLLCIVALLLMLLCSLGTLIYTSLKPTAIESCMVKFELSSSKWHMTSPKPHCVNTTSDGKLKILQSGTYLIYGQVIPVDKKYIKDNAPFVVQIYKKNDVLQTLMNDFQILPIGGVYELHAGDNIYLKFNSKDHIQKTNTYWGIILMPDLPFIS | – | binding result [3]: binds |
